Assay results as given in the RNAGym collection of RNA variant scans (doi:10.1073/pnas.2313332121).

B1: TPR t1 (parent)
chain: GACCAAUCUGCCCUCAGAGCUCGAGAACAUCUUCGGAUGCAGAGGAGGCAGGCUUCGGUGGCGCGAUAGCGCCAACGUCCUCAACCUCCAAUGCAUCCCACCACAUGAUGAUGCCUGAAGAGCCUUGGUUUUUUG

Variants of: B1
Test: polymerase ribozyme fitness, log enrichment relative to wild type (log ratio); higher = more active; in vitro selection for triplet polymerase activity
Method in brief: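 One round of in vitro selection, in triplicate, was applied to PCR-built, transcribed mutant libraries of each subunit of a heterodimeric triplet polymerase ribozyme. The steps were annealing with a biotinylated primer, partner subunit and triplets, incubation frozen at −7 °C, gel excision of extended constructs, streptavidin-bead capture and RT-PCR. Fitness is the logarithm, base 2, of genotype enrichment over wild-type enrichment from inverse-variance-weighted replicate averages of Illumina-sequenced inputs and outputs, keeping genotypes with ≥10 input reads and ≥1 read per output.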

| Variant | polymerase ribozyme fitness (log ratio) |
| --- | --- |
| A5G G71U A111C G127A | -1.59 |
| U7G C11U G69C C88A | -1.91 |
| A27C C88U | -3.46 |
| C34A A37G | -2.73 |
| C20U C22A A50C G69U | -2.32 |
| A6U G48U C56G C82A | -1.65 |
| C20G A41U C73G U87C U92A C123G | -4.71 |
| G63A U131A | -1.11 |
| C11A U92A | -4.36 |
| C56U G61C C97U A103U C123G | -7.29 |
| A6C A105C U130C | -1.78 |
| C73A C99U A118G | -3 |
| A26U U96A C97A C124U | -5.98 |
| G61A G120A | 0.833 |
| A90C | -1.08 |
| A18U C49G | -3.54 |
| C53U C73G C89U U112G | -1 |
| A29G G107A | -5.6 |
| C40G C72G C115G C123G G128C | -4.8 |
| A16U G42A | -3.84 |
| U81C U112A U125G | -0.145 |
| G35A A66G | -6.38 |
| C22U C73U U78A C89G U112A C124A | -6.98 |
| U7A U9C U78A G110U | -1.82 |

| Variant | polymerase ribozyme fitness (log ratio) |
| --- | --- |
| C64A G120U | -6.12 |
| C82G U125A | -0.86 |
| C85A C94U U112C | 0.116 |
| C72U U109G | -4.62 |
| C89G C102A C114A | -5.12 |
| A27G G120A | -1.1 |
| C82G C124U | 1.29 |
| C15G A83G G120C | -2.3 |
| A41U G61C C115A G117A | -5.8 |
| G42U G63A C82U | -2.86 |
| A27C A29U C56G | -4.23 |
| A74U G110A C115U | -6.32 |
| C8G C15G C70G C114U | -5.64 |
| C3U U54G A75G U92C | -2.3 |
| C8A C12A U78G | -0.297 |
| A37G G61A | -0.324 |
| C20U C70U C88A U106C | -2.34 |
| C80U A83G | -1.23 |
| U14C G63C | -2.35 |
| U14A C70U U126C G135U | -3.92 |
| G61C G71U | -3.13 |
| A2G C13U A46U C62A C86A G113U G120U C123G | -6.73 |
| A18U C94U C101A G110A | -6.65 |
| C13U C70U | -0.262 |

| Variant | polymerase ribozyme fitness (log ratio) |
| --- | --- |
| A50U C56G | -1.76 |
| C8A C11G U54C U106A | 0.24 |
| G48C C114A | -1.76 |
| G77A C123G G135U | 0.853 |
| A68G C72G A83U C86A C104U U112G U116C A119C | -6.61 |
| A41U A46U C89G A121C | -7.24 |
| C62G C82A | -1.67 |
| C64A C86U A103U C114A | -6.49 |
| C99U U130A | -3.71 |
| C11G G44C C79G | -2.6 |
| C20U G52A G60A U96A | -3.48 |
| C56A U112A C114A U116G | -6.59 |
| C31U G36U G61U C82A A111U | -5.16 |
| U112C G135U | -0.0479 |
| A6G A43G G57U C73U U81A | -3.53 |
| C80U C115U | -2.06 |
| A50G C53U U129C U130G | -0.774 |
| G60A C124U | 1.27 |
| C53A C97A | -4.2 |
| G39U G42C | -2.2 |
| G17A U59C G69U G120U | -2.26 |
| A46C C72A | 0.257 |
| C72U C88A | 0.024 |
| C56G G71A G110U G117A | -5.02 |

| Variant | polymerase ribozyme fitness (log ratio) |
| --- | --- |
| A50G C72G | -0.204 |
| A5U C8G C80A A83U | -3.88 |
| C53A G63C | -2.92 |
| G48A U59A C79U U125G U130G | -1.48 |
| G52C G61C | -3.04 |
| U7G A118G | 0.686 |
| C3G C13A A95C | -4.35 |
| U7C C28A U78A C123U | -3 |
| A18C G61C U112G | -6.42 |
| G47A G61U G120U G127A | -0.871 |
| A119G U131A | 0.889 |
| A41U G42C C70A | -6.24 |
| A6U U38G U59C C86A | -3.66 |
| U7C G17A A24G A26C C49A C56U C73G U87C G113A | -7 |
| U21A C80U | -0.894 |
| U81A C86U | -1.8 |
| C70U C115U | -1.84 |
| U7A C70A G71A | -2.52 |
| C15A G42U C79U C115G C123A | -5.36 |
| A2C A37C C94U U96A U112C C114U | -4.55 |
| G39A | -0.485 |
| A43U G120A | -0.64 |
| C70U G110U U112G | -6.05 |
| U7A C12A G35A C53U | -5.51 |

| Variant | polymerase ribozyme fitness (log ratio) |
| --- | --- |
| G60A C82G C101U G120A G128U | -2.12 |
| U7A G10A C28G C73A U109A A119G C123G | -5.03 |
| U9C C89A | -0.733 |
| A50C G52U | -2.09 |
| C22G U131A | -3.47 |
| A18U C22U A43G G60A | -6.88 |
| A37C C53U U81G | -2.81 |
| G35A G42A G61A U106A U112G A121C G127U G128A | -6.38 |
| C40U U55C | -0.711 |
| C64A A83G U92G C99U C104A | -8.04 |
| C70A G77A C97A A121U | -5.66 |
| C101G U133A | -1.55 |
| U9G G65C | -5.24 |
| A5G C88A G107A C114U | -3.65 |
| G44U C53U | -1.59 |
| U78C C104A | -1.61 |
| C11U G52A C94G C104A A121G | -2 |
| C28G A46G G120A U130A | -2.51 |
| A43C C49U C70A C102U G110A G128C U131G | -6.44 |
| A18U C20G | -4.36 |
| G69U G93U G110A | -0.494 |
| C101A G110U A119G | -2.89 |
| U21A A41U A90G | -0.995 |
| C56U C89U U116C G127A G135U | -3.61 |

| Variant | polymerase ribozyme fitness (log ratio) |
| --- | --- |
| G117C U129G | -6.14 |
| C40A A46U | -3.32 |
| C12G A74C C89A | -1.6 |
| U54G C64U | -3.4 |
| C4G C13U C31G C34G G63A C79U G113U | -7.83 |
| A5C U92A C101U C115A U133G | -4.61 |
| A16G U21C G48A A100C C123A | -4.34 |
| A2G C11U G48C U92A | -4.56 |
| C104U C123G | 1.92 |
| C40G A41U G45A G60A A91U | -4.96 |
| U9G G113C | -1.34 |
| C28G A29C A95G C98U G107A U112A | -5.27 |
| U9A C56A G61C G77U G117U | -2.13 |
| A27U G44U | -3.87 |
| C3G A5G U112C | -0.649 |
| C20U C72A A83G G113U | -2.08 |
| A50U G71C G117A | -3.1 |
| C53U G61C U106G C124G G135A | -0.0167 |
| C15A C94U C114G U126A | -5.6 |
| C8G C20U G36C C49A A75G A100U | -2.01 |
| G69C U106C | -1.22 |
| C70U C82U G93U | -1.52 |
| A37U C114A A121C U125C | -0.52 |
| C11A A16G G23U G39C C76U A95C G113U C114G | -7.17 |

| Variant | polymerase ribozyme fitness (log ratio) |
| --- | --- |
| G10A G48C C64A G113A A119G C124G | -6.38 |
| C40U G47C G58A G117A | -4.37 |
| C8G U14G G35C C64U C94U | -3.36 |
| G45U C70A | -2.74 |
| C89U C104U | 0.00386 |
| G60U C62U U78G C80A U112C | -1.42 |
| A43G G71A A100U | -6.07 |
| G10U C114A U125A G135U | -3.39 |
| U7A C114G | -2.07 |
| C73U C86U | 0.0966 |
| A16U U133G | -2.05 |
| G42C U55A G71C G113U G120U C123U U125A | -5.08 |
| C13A C28G A46G G110C U125C | -0.574 |
| U7C C8G C64G C85A U112G | -6.03 |
| A50U G69C | -1.7 |
| C53U A90C C104A A121G C123A | -2.12 |
| C13G C62A C94U | -3.01 |
| C56G A74U G110A U116G C124G G135U | -5.19 |
| A29C C56U U81A | -2.74 |
| A29U G52C C73G U132C G135U | -3.19 |
| A26U C40A G60C | -6.14 |
| C4A U7C C49G A50U C88G | -2.88 |
| C49U G113U C114U | -2.07 |
